Drawing on US20190134213A1 (Bicycle, published 2019), this text covers Kd for four molecules.

Starred links: 1 amine or outer side, 2 acyl side, 3 side chain; linkers in the order of their positions; H or OH if unused. Positions of bridges follow the written chain, without caps; N, C: chain ends. Non-standard residues stand in square brackets, D forms with d. Sar10 = ten sarcosines (spacer), CN(CC(=O)N(C)CC(=O)N(C)CC(=O)N(C)CC(=O)N(C)CC(=O)[*:2])C(=O)CN(C)C(=O)CN(C)C(=O)CN(C)C(=O)CN(C)C(=O)CN(C)[*:1]; SMPP‑derived hindered disulphide linker = hindered disulphide linker derived from SMPP, with two methyl groups, carrying the toxin DM1; 1Nal = N[C@@H](Cc1cccc2ccccc12)C(=O)O; TBMB = c1c(C[*:1])cc(C[*:3])cc1C[*:2]; Tle = CC(C)(C)[C@H](N)C(=O)O; βAla = NCCC(=O)O; DM1 = toxin

The target of assay [1] is T1, MT1-MMP hemopexin-like repeats (MT1-MMP hemopexin domain), residues Cys319-Gly511 from the human gene, … (human, UniProt P50281 319-511).
T1 construct: range 319-511; Secreted soluble protein expressed in HEK293 cells, purified by Ni-NTA and gel filtration; also called hemopexin of MT1-MMP; MMP14
Briefly: fluorescence polarisation competition, tracer 17-69-07-N040, human MT1-MMP hemopexin domain (n = 2). The source says:
(§1) Here, a pre-formed complex of PEX with the fluorescent PEX-binding tracer is titrated with free, non-fluoresceinated bicyclic peptide. Since all 17-69-based peptides are expected to bind at the same site, the titrant will displace the fluorescent tracer from PEX. Dissociation of the complex can be measured quantitatively, and the Kd of the competitor (titrant) to the target protein determined. The advantage of the competition method is that the affinities of non-fluoresceinated bicyclic peptides can be determined accurately and rapidly.
(§2) Subsequently, the non-fluorescent competitor bicyclic peptide (usually just the bicycle core sequence) is titrated, such that it displaces the fluorescent tracer from the target protein. The displacement of the tracer is measured and associated with a drop in fluorescence polarisation. The drop in fluorescence polarisation is proportional to the fraction of target protein bound with the non-fluorescent titrant, and thus is a measure of the affinity of titrant to target protein.
(§3) The raw data is fit to the analytical solution of the cubic equation that describes the equilibria between fluorescent tracer, titrant, and binding protein. The fit requires the value of the affinity of fluorescent tracer to the target protein, which can be determined separately by direct binding FP experiments (see previous section). […]
On the technique in general: Fluorescence polarisation rises when a labelled molecule tumbles more slowly, as on binding a larger partner.

For assay [2], the target named is T1, MT1-MMP hemopexin-like repeats (MT1-MMP …). Briefly: fluorescence polarisation competition with a fluoresceinated bicyclic tracer on MT1-MMP hemopexin domain.
Source text: as §1, §2, §3

B1: BT17BDC-27 (peptide)
peptide: {DM1-SMPP‑derived hindered disulphide linker}-AC[dA]NE[1Nal][dA]CEDFYD[Tle]C-NH2
modifications: linker 2-8-15 via TBMB
notes: also called Bicycle Drug Conjugate of 17-69-07-N268 with DM1
In the case of B1, the affinity in assay [1], expressed as Kd, was 0.69 nM.

B2: 17-69-07-N268 (peptide)
peptide: H-AC[dA]NE[1Nal][dA]CEDFYD[Tle]C-NH2
modifications: linker 2-8-15 via TBMB
SMILES: C[C@H](N)C(=O)N[C@H]1CSCc2cc3cc(c2)CSC[C@H](NC(=O)[C@@H](C)NC(=O)[C@H](Cc2cccc4ccccc24)NC(=O)[C@H](CCC(=O)O)NC(=O)[C@H](CC(N)=O)NC(=O)[C@@H](C)NC1=O)C(=O)N[C@@H](CCC(=O)O)C(=O)N[C@@H](CC(=O)O)C(=O)N[C@@H](Cc1ccccc1)C(=O)N[C@@H](Cc1ccc(O)cc1)C(=O)N[C@@H](CC(=O)O)C(=O)N[C@@H](C(C)(C)C)C(=O)N[C@H](C(N)=O)CSC3
notes: Synthetic bicyclic peptide cyclised on TBMB; lacks the bAla-Sar10 spacer of 17-69-07-N241; Precursor of BT17BDC-27; also called A-(17-69-07) D-Ala1 1Nal4 D-Ala5 tBuGly11; AC(D-Ala)NE(1Nal)(D-Ala)CEDFYD(tBuGly)C
Take B2: the Kd (as a rule, the concentration at which binding is half-saturated) in assay [2] was found to be 1.7 nM.

B3: 17-69-07-N241 (peptide)
peptide: H-[βAla][Sar10]AC[dA]NE[1Nal][dA]CEDFYD[Tle]C-NH2
modifications: linker 4-10-17 via TBMB
SMILES: C[C@H](NC(=O)CN(C)C(=O)CN(C)C(=O)CN(C)C(=O)CN(C)C(=O)CN(C)C(=O)CN(C)C(=O)CN(C)C(=O)CN(C)C(=O)CN(C)C(=O)CN(C)C(=O)CCN)C(=O)N[C@H]1CSCc2cc3cc(c2)CSC[C@H](NC(=O)[C@@H](C)NC(=O)[C@H](Cc2cccc4ccccc24)NC(=O)[C@H](CCC(=O)O)NC(=O)[C@H](CC(N)=O)NC(=O)[C@@H](C)NC1=O)C(=O)N[C@@H](CCC(=O)O)C(=O)N[C@@H](CC(=O)O)C(=O)N[C@@H](Cc1ccccc1)C(=O)N[C@@H](Cc1ccc(O)cc1)C(=O)N[C@@H](CC(=O)O)C(=O)N[C@@H](C(C)(C)C)C(=O)N[C@H](C(N)=O)CSC3
notes: Synthetic bicyclic peptide cyclised on TBMB; precursor of BT17BDC-28; also called bAla-Sar10-A-(17-69-07) D-Ala1 1Nal4 D-Ala5 tBuGly11; (bAla)-Sar10-AC(D-Ala)NE(1Nal)(D-Ala)CEDFYD(tBuGly)C
B3 gave a dissociation constant Kd in assay [2] of 1.21 nM.

B4: BT17BDC-28 (peptide)
peptide: {DM1-SMPP‑derived hindered disulphide linker}-[βAla][Sar10]AC[dA]NE[1Nal][dA]CEDFYD[Tle]C-NH2
modifications: linker 4-10-17 via TBMB
notes: also called Bicycle Drug Conjugate of 17-69-07-N241 with DM1
For B4, the Kd in assay [1] is 1.65 nM.
